Results on 3 molecules are retold here after paper PMC5306355, “Clustered Genes Encoding 2-Keto-L-Gulonate Reductase and L-Idonate 5-Dehydrogenase in the Novel Fungal D-Glucuronic Acid Pathway” (Frontiers in Microbiology, 2017).

Assay type in all cases: biochemical, Aspergillus niger
Series [1] concerns GluE. Description: NADH formation followed at […] nm. To be noted: 400 μM NAD+; 50 mM Tris pH 8.
The subject of series [2] is GluE. In words: NADH oxidation followed at […] nm. To be noted: 400 μM NADH; 50 mM Tris pH 7.
Substrate in series [3]: O=C(O)C(=O)[C@@H](O)[C@H](O)[C@@H](O)CO
In words: purified protein. To be noted: NADPH as co-substrate (Methods print 400 μM NADH), 50 mM Tris pH 7.

Substrate in series [4]: O=C(O)[C@H](O)[C@@H](O)[C@H](O)[C@@H](O)CO
Description: purified protein. To be noted: NADP+ as co-substrate (Methods print 400 μM NAD+), 50 mM Tris pH 8.

For the molecule `O=C(O)[C@H](O)[C@@H](O)[C@H](O)[C@@H](O)CO` [L-idonate], in series [1], the Km was 30.9 ± 1.5 mM.

As to `O=C(CO)[C@@H](O)[C@H](O)[C@@H](O)C(=O)O` [5-keto-D-gluconate], in series [2], the Km is 8.4 ± 0.1 mM.

B1: GluD (Aspergillus niger) (protein)
chain: MPAALLIGAITHSMPEWNDLSSILTLKEFPSGTREDFIRNCRDGQYDDVVAIYRSNTSTKFTGPFDAELLSFLPSSLKYIAHNGAGYDNIDVAACTKKGIAVSSTPVAVNNATADVAIFLMIGALRQAYIPVTSLREGKFLGQTGLGHDPQNKVLGILGMGGIGREVARRARAFGMTIQYHNRSRLSPELEDGATYVSFDELLANSDVLSLNLALNASTRHIIGKTEFQKMKDGVIIVNTARGALIDEKALVEALESGKVWSAGLDVYENEPAIEPGLVNNPRVMLLPHIGTMTYETQREMELLVLNNLRSGVETGKMITLVPEQKDVFGK
With B1, in series [3], the Km turned out to be 25.3 ± 1.2 mM, the maximal velocity (Vmax) is 34.9 µmol/min/mg and the kcat was 21.4 ± 0.3 s⁻¹. For the same molecule, in series [4], the Michaelis-Menten constant (Km) came to 12.6 ± 0.8 mM, the maximum rate (Vmax) worked out at 1.7 µmol/min/mg and the kcat came to 1.1 s⁻¹.
